Test: yeast display, Sf9 membrane polyspecificity reagent, FACS + sequencing; frameworks hold sequencing errors
Outline: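 Sorting gates, low and high (top ~1%), were placed on anti-HA fluorescence to track expression and on streptavidin fluorescence to track reagent binding. A clone's polyreactivity label is taken from the gate it came out of. The reagent was 10% biotinylated, detergent-solubilized Sf9 membrane, applied for 1 hour at 4 °C to galactose-induced yeast display cells.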

| Sequence | polyreactivity (PSR sort gate) |
| --- | --- |
| QVQLVESGGGLVQAGGSLRLSCAASGRTLYYYTMGWYRQAPGKERELVAAIRWSTGSTYYADSVKGRFTISRDNAKNTVYLQMNSLKPEDTAVYYCNAVVARLIFWQFDYWGQGTQVTVSS | high polyreactivity |
| QVQLVESGGGLVQAGGSLRLSCAASGRTNRFYAMGWYRPAPGNERELVAAIRNGGRTNYADSVKGRFTIARDNAKNTVYLQMNSLKPEDTAVYSCAKQPGISYRHYDYWGQGPQVTVSS | high polyreactivity |
| QVQLVESGGGLVQAGGSLRLSCAASGRTQSANAMGWYREAPGKERELVATISTRGGRTYYADSVKGRFTISRDNAKNTVYLQMNSLKPEDTAVYYCAVTIRAKYTMKEDYWGQGTQVTVSS | low polyreactivity |
| QVQLVESGGGLVQAGGSLRLSCAASGRTQWRYAMGWYRQAPGKERELVASIRSGGSTYYADSVKGRFTISRDNAKNTVYLQMNSLKPEDTAVYYCAARYYWGAEAGYYYWGQGTQVTVSS | high polyreactivity |
| QVQLVESGGGLVQAGGSLRLSCAASGRTRYPYTMGWYRQAPGKERELVAAITSSGGRTTYADSVKGRFTISRDNAKNTVFLQMYSLKPEDRAVYYCAKKFRPGYRSQYLRYSWGQGSQVTVSS | low polyreactivity |
| QVQLVESGGGLVQAGGSLRLSCAASGRTSAINAMGWYRQAPGKERELVADITRTGGTYADSVKGRFTISRDNAKNNVYLQMNSLKPEVTAVYYCAAVGAWRFDYWGQGTQVTVSS | high polyreactivity |
| QVQLVESGGGLVQAGGSLRLSCAASGRTSDGYAMGWYRQAPGKERELVAGITEGGGDTYYADSVKGRFTISRDNAKNTVYLQMNSLKPEDTAVYYCNAVEGSRLPYDYWGQGTQVTVSS | low polyreactivity |
| QVQLVESGGGLVQAGGSLRLSCAASGRTSDSYAMGWYRQAPGKERELVAVISRSGRTYYADSVKGRFTISRDNAKNTVYLQMNSLKPEDTAVYYCAAKWFRTWSGYWGQGTQVTVSS | high polyreactivity |
| QVQLVESGGGLVQAGGSLRLSCAASGRTSFQYAMGWYRQAPGKERELVAAISWSGGSTFYADSVKGRFTISRDNAKNTVYLQMNSLKPEDTAVYYCNAVSTDSWAYHGDYWGQGTQVTVSS | low polyreactivity |
| QVQLVESGGGLVQAGGSLRLSCAASGRTSGFNTMGWYRQAPGKERELVAAISFSGGSTYYADSVKGRFTISRDNAKNTVYFQMNSLKPEDTAVSYCNALFRYLYRSGDYWRQGTQVTVSS | low polyreactivity |
| QVQLVESGGGLVQAGGSLRLSCAASGRTSGYYAMGWYRQAPGKERELVATISGNVGRTYYADSVKGRFTISRDNAKNTVYLQMNSLKPEDTAVYYCAARTYGPYDYWGQGTQVTVSS | low polyreactivity |
| QVQLVESGGGLVQAGGSLRLSCAASGRTSLAYSMGWYRQAPGKERELVAAINTRGGSTYYADSVKGRFTISRDNAKNTVYLQINSLKPEDTAVYYCAKGPRLYFTPDKAHWKYDSWGQGTQVTVSS | low polyreactivity |
| QVQLVESGGGLVQAGGSLRLSCAASGRTSLGYDMGWYRPAPGQEGELVAAITRSGGSTYYADSVKGRFTISRDNAKNTVYLQMNSLKPEDTAVYYCNRVLPHPDGYGVGARGYWGKGTQVTVSS | high polyreactivity |
| QVQLVESGGGLVQAGGSLRLSCAASGRTSLNYAMGWYRQAPGKERELVAAITLRGGNTYYADSVKGRFTISRDNAKNTVYLQMNSLKPEDTAVYYCAAYTKEISIYYPYEYWGQGTQVTVSS | high polyreactivity |
| QVQLVESGGGLVQAGGSLRLSCAASGRTSLRYAMGWYRQAPGKERELVAAIRYGGGSTRYADSVKGRFTISRDNAKNTVYLQMNSLKPEDTAVYYCAARYFPRIQYGRKGYDYWGQGTQVTVSS | low polyreactivity |
| QVQLVESGGGLVQAGGSLRLSCAASGRTSLYYAMGWYRQAPGKEREFVATITSGGSTNYADSVKGRFTISRDNAKNTVYLQMNSLKPEDTALYYCNARWRRGKTRYGYWGQGTQVNVSS | high polyreactivity |

| Sequence | polyreactivity (PSR sort gate) |
| --- | --- |
| QVQLVESGGGLVQAGGSLRLSCAASGRTSRSYTMGWYRQAPGKERELVAAITRGGRTYYADSVKGRFTISRDNAMNTVYLQMNSLKPEDTAVYYCATDRVQSYGYWGQGTQVTVSS | low polyreactivity |
| QVQLVESGGGLVQAGGSLRLSCAASGRTSRYYAMGWYRQAPGKERELVAGISWSGGNTYYADSVKGRFTISRDNAKNTVYLQMNSLKPEDTAVYYCNARIGWSPSRYGYWGQGTQVTVSS | high polyreactivity |
| QVQLVESGGGLVQAGGSLRLSCAASGRTSSRYVMGWYRQAPGKERELVASLSRSGGSTSYADSVKGRFTISRDNAKNTVYLQMISLKPEDTAVDYCYARTSFQRGGGFWGQGTQVTVSS | high polyreactivity |
| QVQLVESGGGLVQAGGSLRLSCAASGRTSTIYTMGWYRQAPGKESEFVASISAGAGTYYADSVKGRFTISRDNAKNTVYLQMNSLKPEDTAVYYCNASVYWRSTRRHQMDYWGQGTQVTVSS | high polyreactivity |
| QVQLVESGGGLVQAGGSLRLSCAASGRTSVIYAMGWYRPAPGKERELVAGISYRGTSTYYADSVKGRFTISRDNAKNTVYLLMNSLKPEDTAVYYCAAESYYKYFNNYDYWGQGTQVTVAS | high polyreactivity |
| QVQLVESGGGLVQAGGSLRLSCAASGRTSVLYAMGWYRQAPGKEREFVAAITWNSGSTYYADSVKGRFTISRDNAKNTVYFQMNSLNPEDTAGYYCAADGLSYYVIRFDYWGQGTQVTVSS | low polyreactivity |
| QVQLVESGGGLVQAGGSLRLSCAASGRTSWANVMGWYRQAPGKERELVAAISSSGDSTYYADSVKGRFTISRDNAKNTVYLQMNSLKPEDTAVDYCAAGYELSDLAILDYRYDYWGQGSQVTVSS | low polyreactivity |
| QVQLVESGGGLVQAGGSLRLSCAASGRTVNIYAMGWYRQAAGKERELVADISYSDGSTDYADSVKGRFTISRDNAKNTVYLQMNSLKPEDTAVYYCAAYYYYYYGFGQRYYSWGQGTQVTVSS | low polyreactivity |
| QVQLVESGGGLVQAGGSLRLSCAASGRTVRVYAMGWYRQAPGKERELVAAINGGGSTNYADSVKGRFTISRDSAKNTVYLQMNSLKPEDTAVYYCNATGRRSKRIYDYWGQGTQVTVSS | high polyreactivity |
| QVQLVESGGGLVQAGGSLRLSCAASGRTVVNAMGWYRQAPGKERELVAAISSNGGRTYYADSVKGRFTISRDNAKNTVYLQINSLKPEDTAVYYCAAGYIWFRKIQFDYWGQGTQVTVSS | high polyreactivity |
| QVQLVESGGGLVQAGGSLRLSCAASGRTVYRYAMGWYRQAPGKERELVAAITGSGSSTYYADSVKGRFTISRDNAKNTVYLQMNSLKPEDTAVYYCAAARPRLGSAGKFGYWGQGTQVTVSS | high polyreactivity |
| QVQLVESGGGLVQAGGSLRLSCAASGRTYGEYGMGWYRQAPGKERELVAAISSTGSTYYADSVKGRFTISRDNAKNTVYLQMNSLKPEDTAVYYCAAEIVRYGDEYDYWGQGTQVTVSS | low polyreactivity |
| QVQLVESGGGLVQAGGSLRLSCAASGRTYLPNDMGWYRPAPGKERELVAAITDSGGDTYYADSVKGRFTISRDIAKNTVYLQMNSLKPEDTAVYYCAADYYYYGSYYPVEYWGHGTQVTVSS | high polyreactivity |
| QVQLVESGGGLVQAGGSLRLSCAASGRTYNVMGWYRQAPGKERYLVAAITWGGGSTHYADSVKGRFTISRDNAKNTVYLQMISLKPEDTAVYYCAADLLYKSTRVDYWGQGTQVTVSS | low polyreactivity |
| QVQLVESGGGLVQAGGSLRLSCAASGRTYRYAMGWYRQPPGKERELVAGISSSGTSTNYADSVKGRFTISRDNAKNTVYLQMNSLKPEDTAVYYCNADIIWFPADYLYDYWGQGTQVTVSS | low polyreactivity |
| QVQLVESGGGLVQAGGSLRLSCAASGRTYSNAMGWYRQAPGKELEFVASISSGGRTKDADSVKGRFTISRDNAKNTVYLQMNSLKPEDTADYYCNTVPGRYRTFDYWGQGTKVTVSS | high polyreactivity |

From the nanobody polyreactivity screen of Harvey et al. (2022)
